B1: Adhesion G-protein coupled receptor G1 (Mus musculus), Q8K209 (parent)
chain: MAVQVLRQMVYFLLSLFSLVQGAHSGSPREDFRFCGQRNQTQQSTLHYDQSSEPHIFVWNTEETLTIRAPFLAAPDIPRFFPEPRGLYHFCLYWSRHTGRLHLRYGKHDYLLSSQASRLLCFQKQEQSLKQGAPLIATSVSSWQIPQNTSLPGAPSFIFSFHNAPHKVSHNASVDMCDLKKELQQLSRYLQHPQKAAKRPTAAFISQQLQSLESKLTSVSFLGDTLSFEEDRVNATVWKLPPTAGLEDLHIHSQKEEEQSEVQAYSLLLPRAVFQQTRGRRRDDAKRLLVVDFSSQALFQDKNSSQVLGEKVLGIVVQNTKVTNLSDPVVLTFQHQPQPKNVTLQCVFWVEDPASSSTGSWSSAGCETVSRDTQTSCLCNHLTYFAVLMVSSTEVEATHKHYLTLLSYVGCVISALACVFTIAAYLCSRRKSRDYTIKVHMNLLSAVFLLDVSFLLSEPVALTGSEAACRTSAMFLHFSLLACLSWMGLEGYNLYRLVVEVFGTYVPGYLLKLSIVGWGFPVFLVTLVALVDVNNYGPIILAVRRTPERVTYPSMCWIRDSLVSYVTNLGLFSLVFLFNLAMLATMVVQILRLRPHSQNWPHVLTLLGLSLVLGLPWALVFFSFASGTFQLVILYLFSIITSFQGFLIFLWYWSMRFQAQGGPSPLKNNSDSAKLPISSGSTSSSRI

Variants of: B1
Details: with co3a1_mouse Col3a1, P08121
Sequence of co3a1_mouse Col3a1, P08121 (P08121 whole entry): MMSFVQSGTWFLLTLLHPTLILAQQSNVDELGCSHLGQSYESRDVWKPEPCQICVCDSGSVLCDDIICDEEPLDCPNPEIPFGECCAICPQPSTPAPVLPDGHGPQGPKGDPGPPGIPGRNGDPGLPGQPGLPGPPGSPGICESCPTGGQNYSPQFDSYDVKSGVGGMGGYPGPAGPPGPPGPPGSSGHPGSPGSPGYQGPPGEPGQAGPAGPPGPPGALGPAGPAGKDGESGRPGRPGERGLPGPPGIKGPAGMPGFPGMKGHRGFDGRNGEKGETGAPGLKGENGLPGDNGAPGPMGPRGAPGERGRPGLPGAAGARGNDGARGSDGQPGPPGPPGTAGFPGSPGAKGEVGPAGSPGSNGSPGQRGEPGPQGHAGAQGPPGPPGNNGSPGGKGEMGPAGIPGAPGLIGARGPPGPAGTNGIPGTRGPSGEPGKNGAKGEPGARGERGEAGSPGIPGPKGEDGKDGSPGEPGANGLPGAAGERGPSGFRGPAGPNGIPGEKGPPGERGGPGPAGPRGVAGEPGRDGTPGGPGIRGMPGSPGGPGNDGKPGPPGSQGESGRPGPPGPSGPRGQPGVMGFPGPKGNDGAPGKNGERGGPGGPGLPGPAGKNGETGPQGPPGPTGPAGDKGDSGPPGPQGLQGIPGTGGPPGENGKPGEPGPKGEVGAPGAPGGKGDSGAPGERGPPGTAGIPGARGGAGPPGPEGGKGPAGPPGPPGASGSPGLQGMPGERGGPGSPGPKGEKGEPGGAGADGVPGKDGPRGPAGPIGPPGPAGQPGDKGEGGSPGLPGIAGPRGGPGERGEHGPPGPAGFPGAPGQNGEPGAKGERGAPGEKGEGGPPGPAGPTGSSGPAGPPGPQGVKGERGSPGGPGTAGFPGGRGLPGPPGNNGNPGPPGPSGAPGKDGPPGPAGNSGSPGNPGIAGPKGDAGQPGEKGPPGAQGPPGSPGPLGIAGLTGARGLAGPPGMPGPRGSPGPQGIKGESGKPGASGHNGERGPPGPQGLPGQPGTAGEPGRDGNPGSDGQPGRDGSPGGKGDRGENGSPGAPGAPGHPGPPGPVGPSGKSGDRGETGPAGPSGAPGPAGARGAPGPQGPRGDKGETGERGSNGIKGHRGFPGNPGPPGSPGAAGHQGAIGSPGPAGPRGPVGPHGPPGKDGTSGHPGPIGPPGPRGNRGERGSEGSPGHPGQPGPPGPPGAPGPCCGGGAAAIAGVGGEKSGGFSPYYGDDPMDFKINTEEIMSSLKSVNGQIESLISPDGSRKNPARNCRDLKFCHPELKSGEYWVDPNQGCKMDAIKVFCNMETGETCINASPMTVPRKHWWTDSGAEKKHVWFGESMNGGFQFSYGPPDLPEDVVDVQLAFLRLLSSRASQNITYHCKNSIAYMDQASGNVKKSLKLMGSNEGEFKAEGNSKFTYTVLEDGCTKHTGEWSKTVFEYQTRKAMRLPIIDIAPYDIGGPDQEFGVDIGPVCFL

Effect of a mutation on the interaction, disrupting interaction:
Y88C
R38Q
R38W
C91S
